Results as given in patent WO2019096294A1.

Target: His-tagged human prothrombin (human) (UniProt P00734)
Test: binding ELISA; His-tagged human prothrombin coated on plate

EC50: 0.282 µg/mL
Substance: Ichorcumab (antibody)
